Results published in patent US20100129369A1 (Eli Lilly, published 2010).
Residue numbers refer to the chain shown, from its start. Names and notes keep the numbering of the source. Blank lines part the entries; values can stand above or below the binder they belong to.

Columns and labels:
[1] = molecular target: T1, human c-Met (human, UniProt P08581 25-1390); experiment: cell-based or functional assay
[2] = molecular target: T1, human c-Met; experiment: cell-based or functional assay; remark: listed apart in the source
[3] = molecular target: T2, Human c-Met-Flis-Fc ECD (human); experiment: ELISA, coated ECD-Fc, antibody 0.002 ng/mL
T2 construct: also called human c-Met extracellular domain (ECD)-Fc-Flis fusion; Human cMet-ECD-Fc-Flis
T2 sequence (chain, as listed by the source limits assumed): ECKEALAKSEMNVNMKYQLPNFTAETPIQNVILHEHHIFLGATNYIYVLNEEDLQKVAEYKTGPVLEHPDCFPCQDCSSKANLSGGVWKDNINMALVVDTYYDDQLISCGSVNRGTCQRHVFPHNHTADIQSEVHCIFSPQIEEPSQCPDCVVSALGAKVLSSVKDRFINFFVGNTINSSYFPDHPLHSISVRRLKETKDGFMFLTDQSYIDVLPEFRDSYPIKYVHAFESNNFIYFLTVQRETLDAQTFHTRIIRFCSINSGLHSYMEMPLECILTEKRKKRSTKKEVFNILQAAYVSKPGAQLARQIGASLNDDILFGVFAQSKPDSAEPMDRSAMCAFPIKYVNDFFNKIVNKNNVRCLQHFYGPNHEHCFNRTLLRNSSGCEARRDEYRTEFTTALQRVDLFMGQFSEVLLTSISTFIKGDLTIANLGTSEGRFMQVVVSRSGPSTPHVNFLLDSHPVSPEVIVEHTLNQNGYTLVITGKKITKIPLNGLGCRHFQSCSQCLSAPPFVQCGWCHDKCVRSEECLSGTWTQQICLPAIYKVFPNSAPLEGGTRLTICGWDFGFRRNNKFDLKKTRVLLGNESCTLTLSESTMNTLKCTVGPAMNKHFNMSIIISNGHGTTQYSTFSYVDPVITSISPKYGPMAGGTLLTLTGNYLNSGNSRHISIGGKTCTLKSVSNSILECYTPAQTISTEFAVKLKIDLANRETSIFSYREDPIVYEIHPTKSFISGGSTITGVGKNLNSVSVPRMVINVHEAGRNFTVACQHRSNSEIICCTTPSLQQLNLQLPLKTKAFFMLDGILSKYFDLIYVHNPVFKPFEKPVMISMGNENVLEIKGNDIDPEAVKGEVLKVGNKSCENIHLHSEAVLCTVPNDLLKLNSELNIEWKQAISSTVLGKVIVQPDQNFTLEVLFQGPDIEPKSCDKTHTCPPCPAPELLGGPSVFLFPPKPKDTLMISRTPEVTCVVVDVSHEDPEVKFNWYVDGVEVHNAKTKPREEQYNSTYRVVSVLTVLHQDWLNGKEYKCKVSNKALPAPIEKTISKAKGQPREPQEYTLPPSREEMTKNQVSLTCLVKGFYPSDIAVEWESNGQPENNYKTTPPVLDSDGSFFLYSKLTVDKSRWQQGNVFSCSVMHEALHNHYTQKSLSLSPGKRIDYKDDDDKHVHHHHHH
Experimental: (§1) Wells of 96-well EIA/RIA high binding plates (Costar, #2592) are coated with 100 μL of 1 μg/mL human c-Met extracellular domain (ECD)-Fc-Flis fusion (SEQ ID NO:72), RON-ECD-Fc (R&D Systems, #1947-MS), or PlexinA2-ECD-Fc (Abnova, Taipei, Taiwan #H00005362-P01) in coating buffer (BioFX Labs, # COAT-1000-01) overnight at 4° C. […] After the plates are washed, 100 μL/well of substrate solution (BioFx, #TMBW-1000-01) are added and the plates are incubated for 10 min. at room temperature. 100 μL/well of stop solution (BioFx, # LSTP-1000-01) are added to stop the reaction. The colorimetric signals are developed and read at 450 nm using a SpectraMax 190 plate reader (Molecular Devices, Sunnyvale, Calif.). c-Met antibody binding to c-Met, RON and PlexinA2 ECDs is proportional to color signal production.

[4] = molecular target: T2, Human c-Met-Flis-Fc ECD; experiment: ELISA, coated ECD-Fc, antibody 77.160 ng/mL
Experimental: as §1

[5] = molecular target: T2, Human c-Met-Flis-Fc ECD; experiment: ELISA, coated ECD-Fc, antibody 100000.000 ng/mL
Experimental: as §1

[6] = molecular target: T2, Human c-Met-Flis-Fc ECD; experiment: ELISA, coated ECD-Fc, antibody 0.010 ng/mL
Experimental: as §1

[7] = molecular target: T2, Human c-Met-Flis-Fc ECD; experiment: ELISA, coated ECD-Fc, antibody 2777.778 ng/mL
Experimental: as §1

[8] = molecular target: T2, Human c-Met-Flis-Fc ECD; experiment: ELISA, coated ECD-Fc, antibody 0.000 ng/mL
Experimental: as §1

[9] = molecular target: T2, Human c-Met-Flis-Fc ECD; experiment: ELISA, coated ECD-Fc, antibody 462.963 ng/mL
Experimental: as §1

[10] = molecular target: T3, Rat c-Met-Flis-Fc ECD (rat); experiment: SPR Biacore, antibody captured, ECD-Fc analyte, 1:1 model
T3 construct: also called Rat cMet-ECD-Fc-Flis; rat c-Met ECD
T3 sequence (chain, as listed by the source limits assumed): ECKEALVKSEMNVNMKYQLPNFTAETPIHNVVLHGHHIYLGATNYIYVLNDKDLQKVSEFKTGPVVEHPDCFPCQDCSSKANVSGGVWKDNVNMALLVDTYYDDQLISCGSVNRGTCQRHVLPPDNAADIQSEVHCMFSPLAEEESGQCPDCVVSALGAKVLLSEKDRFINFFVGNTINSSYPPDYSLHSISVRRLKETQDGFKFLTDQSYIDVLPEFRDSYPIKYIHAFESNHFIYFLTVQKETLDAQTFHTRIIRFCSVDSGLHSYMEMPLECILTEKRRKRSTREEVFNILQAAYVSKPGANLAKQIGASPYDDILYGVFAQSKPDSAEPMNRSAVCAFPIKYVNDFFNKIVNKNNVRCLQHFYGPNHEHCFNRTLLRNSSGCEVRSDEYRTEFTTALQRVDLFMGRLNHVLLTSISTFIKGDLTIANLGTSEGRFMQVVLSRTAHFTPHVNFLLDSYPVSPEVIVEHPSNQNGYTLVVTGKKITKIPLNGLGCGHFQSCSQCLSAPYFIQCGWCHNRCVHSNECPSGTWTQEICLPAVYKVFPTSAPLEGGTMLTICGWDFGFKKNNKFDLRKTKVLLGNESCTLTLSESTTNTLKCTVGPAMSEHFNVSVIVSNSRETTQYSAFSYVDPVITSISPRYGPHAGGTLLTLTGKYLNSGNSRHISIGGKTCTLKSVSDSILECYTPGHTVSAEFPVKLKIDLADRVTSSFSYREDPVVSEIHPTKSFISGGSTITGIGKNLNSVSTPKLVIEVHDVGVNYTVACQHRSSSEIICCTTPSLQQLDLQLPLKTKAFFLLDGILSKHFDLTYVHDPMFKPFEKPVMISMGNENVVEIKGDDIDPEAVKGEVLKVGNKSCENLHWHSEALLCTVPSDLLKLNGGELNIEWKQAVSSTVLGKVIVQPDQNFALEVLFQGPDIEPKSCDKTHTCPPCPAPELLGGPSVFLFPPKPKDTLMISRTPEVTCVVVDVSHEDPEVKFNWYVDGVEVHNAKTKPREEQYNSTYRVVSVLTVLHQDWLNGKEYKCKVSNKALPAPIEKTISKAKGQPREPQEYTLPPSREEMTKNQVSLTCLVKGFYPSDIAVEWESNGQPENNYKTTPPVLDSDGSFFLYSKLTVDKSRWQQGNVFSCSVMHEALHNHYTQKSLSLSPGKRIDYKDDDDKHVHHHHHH
Experimental: (§2) A Biacore® 2000 instrument is used to measure the binding kinetics of c-Met antibodies to human, cynomolgus monkey, and rat c-Met ECDs. Measurements are performed at 25° C. Samples are dissolved in HBS-EP buffer (150 mM sodium chloride, 3 mM EDTA, 0.005% (w/v) surfactant P-20, and 10 mM N-2-hydroxyethylpiperazine-N′-2-ethanesulfonic acid (HEPES) at pH 7.4; #BR-1001-88).
(§3) Binding is evaluated using multiple cycles. Each cycle is performed at a flow rate of 50 μL/min., and consists of the following steps: injection of about 10 μL of a c-Met antibody at 10 μg/mL aiming at a capture of 40-100 RUs, injection of 250 μL of human, cynomolgus, or rat c-Met-Flis-Fc ECD (starting at 100 nM and using two-fold serial dilutions for each cycle) followed by 20 min. for dissociation, and regeneration using about 30 μL of 10 mM glycine hydrochloride, pH 1.5. Association and dissociation rates for each cycle are evaluated using a “1:1 (Langmuir) binding” model in the BIAevaluation software, version 4.1.

[11] = molecular target: T4, Cynomolgus Monkey c-Met-Flis-Fc ECD (cynomolgus monkey); experiment: as above
T4 construct: also called Cynomolgus Monkey cMet-ECD-Fc-Flis; cynomolgus monkey c-Met ECD
T4 sequence (chain, as listed by the source limits assumed): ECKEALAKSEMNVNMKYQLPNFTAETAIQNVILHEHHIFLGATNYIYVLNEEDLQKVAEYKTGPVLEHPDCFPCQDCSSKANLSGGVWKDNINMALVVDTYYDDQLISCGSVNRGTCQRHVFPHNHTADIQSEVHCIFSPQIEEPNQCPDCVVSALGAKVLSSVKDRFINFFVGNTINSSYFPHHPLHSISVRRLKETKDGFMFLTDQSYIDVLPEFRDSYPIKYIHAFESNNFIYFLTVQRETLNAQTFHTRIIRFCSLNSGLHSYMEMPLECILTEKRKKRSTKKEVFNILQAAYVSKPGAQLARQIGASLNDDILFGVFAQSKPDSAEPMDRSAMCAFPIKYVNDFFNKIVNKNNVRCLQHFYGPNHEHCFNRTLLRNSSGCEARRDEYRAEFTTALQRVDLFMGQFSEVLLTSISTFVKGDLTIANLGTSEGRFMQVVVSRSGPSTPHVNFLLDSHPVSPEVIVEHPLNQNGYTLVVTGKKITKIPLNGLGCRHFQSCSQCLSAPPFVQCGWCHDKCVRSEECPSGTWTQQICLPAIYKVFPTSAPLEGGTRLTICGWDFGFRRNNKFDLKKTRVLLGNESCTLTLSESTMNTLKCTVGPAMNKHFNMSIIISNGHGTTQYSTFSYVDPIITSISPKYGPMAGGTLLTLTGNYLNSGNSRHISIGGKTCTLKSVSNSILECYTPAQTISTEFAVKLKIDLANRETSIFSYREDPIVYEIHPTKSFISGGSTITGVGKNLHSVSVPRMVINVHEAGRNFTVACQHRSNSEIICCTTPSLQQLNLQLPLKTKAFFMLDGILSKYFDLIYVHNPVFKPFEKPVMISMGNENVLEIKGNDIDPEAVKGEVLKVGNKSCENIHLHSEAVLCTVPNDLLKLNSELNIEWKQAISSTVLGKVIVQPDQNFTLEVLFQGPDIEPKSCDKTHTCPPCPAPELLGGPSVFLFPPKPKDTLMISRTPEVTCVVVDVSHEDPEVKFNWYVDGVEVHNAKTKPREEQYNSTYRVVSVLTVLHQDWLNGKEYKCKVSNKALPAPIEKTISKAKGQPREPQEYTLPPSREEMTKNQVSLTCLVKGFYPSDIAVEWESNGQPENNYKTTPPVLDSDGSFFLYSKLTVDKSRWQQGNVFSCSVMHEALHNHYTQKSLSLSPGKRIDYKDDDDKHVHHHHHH
Experimental: as §2, §3

[12] = molecular target: T2, Human c-Met-Flis-Fc ECD; experiment: as above
Experimental: as §2, §3

[13] = molecular target: T2, Human c-Met-Flis-Fc ECD; experiment: ELISA, coated ECD-Fc, antibody 2.143 ng/mL
Experimental: as §1

[14] = molecular target: T2, Human c-Met-Flis-Fc ECD; experiment: ELISA, coated ECD-Fc, antibody 12.860 ng/mL
Experimental: as §1

[15] = molecular target: T2, Human c-Met-Flis-Fc ECD; experiment: ELISA, coated ECD-Fc, antibody 0.357 ng/mL
Experimental: as §1

[16] = molecular target: T2, Human c-Met-Flis-Fc ECD; experiment: ELISA, coated ECD-Fc, antibody 16666.667 ng/mL
Experimental: as §1

[17] = molecular target: T2, Human c-Met-Flis-Fc ECD; experiment: ELISA, coated ECD-Fc, antibody 0.060 ng/mL
Experimental: as §1

T1 sequence (P08581 25-1390): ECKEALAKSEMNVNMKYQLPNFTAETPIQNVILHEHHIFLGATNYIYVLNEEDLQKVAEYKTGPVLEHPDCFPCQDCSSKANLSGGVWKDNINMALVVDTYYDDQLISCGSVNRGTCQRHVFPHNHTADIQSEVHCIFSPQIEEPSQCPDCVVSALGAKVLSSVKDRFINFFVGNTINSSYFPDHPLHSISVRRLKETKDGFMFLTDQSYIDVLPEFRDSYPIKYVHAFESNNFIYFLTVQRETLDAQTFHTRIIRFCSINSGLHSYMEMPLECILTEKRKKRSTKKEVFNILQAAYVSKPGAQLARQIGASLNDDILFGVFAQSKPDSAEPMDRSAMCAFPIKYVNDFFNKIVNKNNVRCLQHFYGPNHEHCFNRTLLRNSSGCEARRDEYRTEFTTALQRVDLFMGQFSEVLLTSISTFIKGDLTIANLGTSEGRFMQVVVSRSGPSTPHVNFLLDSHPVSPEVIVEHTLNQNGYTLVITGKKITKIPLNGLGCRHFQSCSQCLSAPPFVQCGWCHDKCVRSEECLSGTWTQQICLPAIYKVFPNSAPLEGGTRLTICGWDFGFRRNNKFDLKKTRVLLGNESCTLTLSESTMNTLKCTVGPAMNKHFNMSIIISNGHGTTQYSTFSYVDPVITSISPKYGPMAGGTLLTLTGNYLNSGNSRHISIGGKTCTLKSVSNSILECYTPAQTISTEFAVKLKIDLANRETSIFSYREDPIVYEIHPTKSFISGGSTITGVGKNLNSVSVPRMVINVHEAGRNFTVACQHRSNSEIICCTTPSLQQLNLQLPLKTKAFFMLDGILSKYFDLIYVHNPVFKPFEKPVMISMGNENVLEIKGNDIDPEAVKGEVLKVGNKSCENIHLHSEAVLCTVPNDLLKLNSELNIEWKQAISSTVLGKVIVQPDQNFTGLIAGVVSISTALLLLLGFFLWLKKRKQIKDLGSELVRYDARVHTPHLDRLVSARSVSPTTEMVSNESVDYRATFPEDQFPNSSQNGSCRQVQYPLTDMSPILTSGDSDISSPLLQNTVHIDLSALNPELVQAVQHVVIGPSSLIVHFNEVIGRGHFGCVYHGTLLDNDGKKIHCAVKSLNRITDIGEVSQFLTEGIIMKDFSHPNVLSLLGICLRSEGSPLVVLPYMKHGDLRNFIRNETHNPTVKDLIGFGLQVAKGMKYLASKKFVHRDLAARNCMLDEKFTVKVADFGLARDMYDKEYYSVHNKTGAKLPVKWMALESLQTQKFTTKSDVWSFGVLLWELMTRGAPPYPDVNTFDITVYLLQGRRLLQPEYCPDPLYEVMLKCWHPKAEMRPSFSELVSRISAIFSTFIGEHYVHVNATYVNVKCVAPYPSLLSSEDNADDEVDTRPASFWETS

3H-Thymidine Incorporation in Primary Human Hepatocytes in the Absence of HGF (average), dose 0.0032 ug/mL [1]: 693 | 3H-Thymidine Incorporation in Primary Human Hepatocytes in the Absence of HGF (average), dose 0.016 ug/mL [1]: 892 | 3H-Thymidine Incorporation in Primary Human Hepatocytes in the Absence of HGF (average), dose 0.08 ug/mL [1]: 1280 | 3H-Thymidine Incorporation in Primary Human Hepatocytes in the Absence of HGF (average), dose 0.4 ug/mL [1]: 1750 | 3H-Thymidine Incorporation in Primary Human Hepatocytes in the Absence of HGF (average), dose 2 ug/mL [1]: 1870 | 3H-Thymidine Incorporation in Primary Human Hepatocytes in the Absence of HGF (average), dose 10 ug/mL [1]: 2150 | 3H-Thymidine Incorporation in Caki-1 Cells in the Absence of HGF (AVG CPM), antibody dose 0.1 ng/mL [2]: 17700 CPM | 3H-Thymidine Incorporation in Caki-1 Cells in the Absence of HGF (AVG CPM), antibody dose 0.4 ng/mL [2]: 13600 CPM | 3H-Thymidine Incorporation in Caki-1 Cells in the Absence of HGF (AVG CPM), antibody dose 2.6 ng/mL [2]: 13300 CPM | 3H-Thymidine Incorporation in Caki-1 Cells in the Absence of HGF (AVG CPM), antibody dose 15.4 ng/mL [2]: 13800 CPM | 3H-Thymidine Incorporation in Caki-1 Cells in the Absence of HGF (AVG CPM), antibody dose 92.6 ng/mL [2]: 14700 CPM | 3H-Thymidine Incorporation in Caki-1 Cells in the Absence of HGF (AVG CPM), antibody dose 555.6 ng/mL [2]: 14500 CPM | 3H-Thymidine Incorporation in Caki-1 Cells in the Absence of HGF (AVG CPM), antibody dose 3333.3 ng/mL [2]: 15800 CPM | 3H-Thymidine Incorporation in Caki-1 Cells in the Absence of HGF (AVG CPM), antibody dose 20000.0 ng/mL [2]: 16100 CPM
B1: D11-C27G3 (antibody, human IgG2, kappa, V domains shown)
VH: QVQLVQSGAEVKKPGSSVKVSCKASGYTFTSRYIHWVRQAPGQGLEWMGWIYPVTGDTYYREPFKGRVTITADKSTSTAYMELSSLRSEDTAVYYCARGYGAFYYWGQGTLVTVSS
VL: EIVLTQSPGTLSLSPGERATLSCSVSSSISSTNLHWYQQKPGQAPRLLIYGTSRLRSGIPDRFSGSGSGTDFTLTISRLEPEDFAVYYCQQWSSYPYSFGQGTKLEIKR

3H-Thymidine Incorporation in Primary Human Hepatocytes in the Absence of HGF (average), dose 0.0032 ug/mL [1]: 726 | 3H-Thymidine Incorporation in Primary Human Hepatocytes in the Absence of HGF (average), dose 0.016 ug/mL [1]: 920 | 3H-Thymidine Incorporation in Primary Human Hepatocytes in the Absence of HGF (average), dose 0.08 ug/mL [1]: 1460 | 3H-Thymidine Incorporation in Primary Human Hepatocytes in the Absence of HGF (average), dose 0.4 ug/mL [1]: 1910 | 3H-Thymidine Incorporation in Primary Human Hepatocytes in the Absence of HGF (average), dose 2 ug/mL [1]: 2570 | 3H-Thymidine Incorporation in Primary Human Hepatocytes in the Absence of HGF (average), dose 10 ug/mL [1]: 3160 | 3H-Thymidine Incorporation in Caki-1 Cells in the Absence of HGF (AVG CPM), antibody dose 0.1 ng/mL [2]: 15900 CPM | 3H-Thymidine Incorporation in Caki-1 Cells in the Absence of HGF (AVG CPM), antibody dose 0.4 ng/mL [2]: 14600 CPM | 3H-Thymidine Incorporation in Caki-1 Cells in the Absence of HGF (AVG CPM), antibody dose 2.6 ng/mL [2]: 14900 CPM | 3H-Thymidine Incorporation in Caki-1 Cells in the Absence of HGF (AVG CPM), antibody dose 15.4 ng/mL [2]: 14600 CPM | 3H-Thymidine Incorporation in Caki-1 Cells in the Absence of HGF (AVG CPM), antibody dose 92.6 ng/mL [2]: 15300 CPM | 3H-Thymidine Incorporation in Caki-1 Cells in the Absence of HGF (AVG CPM), antibody dose 555.6 ng/mL [2]: 16600 CPM | 3H-Thymidine Incorporation in Caki-1 Cells in the Absence of HGF (AVG CPM), antibody dose 3333.3 ng/mL [2]: 17900 CPM | 3H-Thymidine Incorporation in Caki-1 Cells in the Absence of HGF (AVG CPM), antibody dose 20000.0 ng/mL [2]: 18600 CPM
B2: D11-S17Y (antibody, human IgG2, kappa, V domains shown)
VH: B1 VH with R61N, P63K
VL: B1 VL with R54Y, R56A

Average A450 nm [3]: 0.299 A450 nm | Average A450 nm [4]: 4 A450 nm | Average A450 nm [5]: 4 A450 nm | Average A450 nm [6]: 0.304 A450 nm | Average A450 nm [7]: 4 A450 nm | Average A450 nm [8]: 0.297 A450 nm | Average A450 nm [9]: 4 A450 nm | Kd [10]: 0.89 nM | koff [10]: 0.00019 s⁻¹ | kon [10]: 210000 M⁻¹ s⁻¹ | Kd [11]: 2.9 nM | koff [11]: 0.000223 s⁻¹ | kon [11]: 78000 M⁻¹ s⁻¹ | Kd [12]: 0.5 nM | koff [12]: 5e-05 s⁻¹ | kon [12]: 100000 M⁻¹ s⁻¹ | Average A450 nm [13]: 2.42 A450 nm | Average A450 nm [14]: 3.93 A450 nm | Average A450 nm [15]: 1.31 A450 nm | Average A450 nm [16]: 4 A450 nm | Average A450 nm [17]: 0.445 A450 nm
B3: D11-8B8 (antibody, human IgG2, kappa, V domains shown)
VH: B1 VH with R61I, P63K, Y104F
VL: B1 VL with R54Y, R56A
notes: Human engineered IgG2, kappa; expressed in HEK293 EBNA cells; also called Mab D11-8B8

Average A450 nm [3]: 0.271 A450 nm | Average A450 nm [4]: 4 A450 nm | Average A450 nm [5]: 3.92 A450 nm | Average A450 nm [6]: 0.29 A450 nm | Average A450 nm [7]: 4 A450 nm | Average A450 nm [8]: 0.284 A450 nm | Average A450 nm [9]: 4 A450 nm | Kd [10]: 2.7 nM | koff [10]: 0.00034 s⁻¹ | kon [10]: 130000 M⁻¹ s⁻¹ | Kd [11]: 6.5 nM | koff [11]: 0.00032 s⁻¹ | kon [11]: 50000 M⁻¹ s⁻¹ | Kd [12]: 1.4 nM | koff [12]: 9e-05 s⁻¹ | kon [12]: 64000 M⁻¹ s⁻¹ | Average A450 nm [13]: 2.53 A450 nm | Average A450 nm [14]: 4 A450 nm | Average A450 nm [15]: 1.44 A450 nm | Average A450 nm [16]: 4 A450 nm | Average A450 nm [17]: 0.46 A450 nm
B4: D11-C27G3 (antibody, human IgG2, kappa, V domains shown)
VH: B1 VH
VL: B1 VL
notes: Human engineered IgG2, kappa; also called D11-27G3
